Kd data for 1 molecule are collected here from paper PMC10712694 (International Journal of Molecular Medicine, 2023).

Experiment [1] has as its target T1, RANK extracellular (ligand-binding) domain, Q30 to P213, His-tagged (UniProt O35305 30-213).
T1 sequence (looked up): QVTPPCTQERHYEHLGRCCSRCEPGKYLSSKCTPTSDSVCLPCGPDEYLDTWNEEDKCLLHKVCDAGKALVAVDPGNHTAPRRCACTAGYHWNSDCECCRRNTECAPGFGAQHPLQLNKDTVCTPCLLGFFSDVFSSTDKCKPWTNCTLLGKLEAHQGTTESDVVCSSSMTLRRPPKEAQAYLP
In words: MST.

In experiment [2] the target is T2, LGR4 extracellular (ligand-binding) domain, L62 to V464, His-tagged (UniProt A2ARI4 62-464).
T2 sequence (looked up): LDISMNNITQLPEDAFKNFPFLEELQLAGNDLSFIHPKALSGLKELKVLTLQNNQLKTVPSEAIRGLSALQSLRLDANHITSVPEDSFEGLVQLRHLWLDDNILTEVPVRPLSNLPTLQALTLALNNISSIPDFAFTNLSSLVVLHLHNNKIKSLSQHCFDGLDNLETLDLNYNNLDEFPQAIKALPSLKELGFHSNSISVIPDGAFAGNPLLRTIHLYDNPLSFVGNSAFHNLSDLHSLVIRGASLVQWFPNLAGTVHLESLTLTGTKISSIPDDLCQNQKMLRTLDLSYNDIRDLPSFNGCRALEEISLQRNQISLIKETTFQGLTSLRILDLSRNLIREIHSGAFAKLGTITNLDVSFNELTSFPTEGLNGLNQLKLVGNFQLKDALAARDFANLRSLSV
In words: MST.

B1: wild-type RANKL (receptor activator of nuclear factor-κB ligand) (ligand, UniProt O35235 139-316, looked up)
chain: FSGAPAMMEGSWLDVAQRGKPEAQPFAHLTINAASIPSGSHKVTLSSWYHDRGWAKISNMTLSNGKLRVNQDGFYYLYANICFRHHETSGSVPTDYLQLMVYVVKTSIKIPSSHNLMKGGSTKNWSGNSEFHFYSINVGGFFKLRAGEEISIQVSNPSLLDPDQDATYFGAFKVQDID
As for B1, the Kd in experiment [1] was found to be 33.3 nM; in experiment [2] it was 409 nM.
